Assay results from patent US20240067748A1 (NONA BIOSCIENCES SUZHOU, published 2024).

T1: human Trop2 on cells (human, UniProt P09758 27-323)
T1 construct: whole, on cells; also called hTrop2; 293T-human Trop2 cells
T1 sequence (looked up): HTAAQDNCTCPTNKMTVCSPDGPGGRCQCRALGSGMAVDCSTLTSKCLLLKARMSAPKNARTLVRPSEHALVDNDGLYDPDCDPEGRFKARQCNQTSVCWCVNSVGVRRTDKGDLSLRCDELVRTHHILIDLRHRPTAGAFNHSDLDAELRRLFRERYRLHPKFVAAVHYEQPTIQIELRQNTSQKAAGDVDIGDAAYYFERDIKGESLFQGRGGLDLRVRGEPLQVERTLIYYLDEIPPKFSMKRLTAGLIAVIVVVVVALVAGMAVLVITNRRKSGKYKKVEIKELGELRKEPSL

T2: monkey Trop2 protein (Sino Biological, #90893-C08H) (monkey, UniProt A0A2K5UE71 27-274)
T2 construct: bought protein; also called monkey Trop2 protein antigen (His tag)
T2 sequence: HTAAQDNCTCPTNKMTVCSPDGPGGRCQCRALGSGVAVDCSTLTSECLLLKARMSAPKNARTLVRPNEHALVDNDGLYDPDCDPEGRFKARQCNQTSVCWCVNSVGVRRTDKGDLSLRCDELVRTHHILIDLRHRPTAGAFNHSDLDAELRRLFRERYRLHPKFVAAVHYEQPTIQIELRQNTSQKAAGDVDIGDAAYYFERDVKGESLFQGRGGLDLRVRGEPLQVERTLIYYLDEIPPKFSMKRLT

T3: human TROP2 protein (Sino Biological, #10428-H08H) (human, UniProt P09758 27-274)
T3 construct: bought protein; also called human Trop2 protein antigen (His tag); not shown: His tag
T3 sequence (looked up): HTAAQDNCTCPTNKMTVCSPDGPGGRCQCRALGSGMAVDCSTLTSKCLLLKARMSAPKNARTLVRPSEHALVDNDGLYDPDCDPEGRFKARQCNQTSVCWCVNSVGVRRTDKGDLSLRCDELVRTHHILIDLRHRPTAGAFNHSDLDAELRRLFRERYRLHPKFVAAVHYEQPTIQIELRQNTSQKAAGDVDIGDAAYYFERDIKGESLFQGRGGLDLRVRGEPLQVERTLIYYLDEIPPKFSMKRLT


Legend:
human Trop2 on cells = biological target: T1, human Trop2 on cells; assay: flow cytometry on 293T-human Trop2 cells
Experimental: The cell density was determined, and the cells were resuspended to 1×10⁶ cells/mL in PBS. 100 μL of cell suspension was taken from each well and added to a 96 well V-bottom plate. The 96-well V-bottom plate was centrifuged at 1000 rpm for 5 min and washed once with PBS+0.5% BSA (VWR, #0332-100G). […] After 1 h, the cells were washed twice with PBS+0.5% BSA. The cells were incubated with 100 μL of Alexa Fluor 488 goat anti-human IgG (Life technologies, 1:1000, #A-11013) at 4° C. for 1 h in the dark, and washed twice with PBS+0.5% BSA. The cells were resuspended in 200 μL of PBS+0.5% BSA. The fluorescence intensity of the cells was analyzed using a FACS verse flow cytometer. All procedures were performed on ice.

[1] = biological target: T2, monkey Trop2 protein (Sino Biological, …); assay: BLI, Octet RED96, AHC sensor
Experimental: (§1) Specifically, a human TROP2 protein (Sino Biological, #10428-H08H) or a monkey Trop2 protein (Sino Biological, #90893-C08H) was diluted to 200 nM with a PBS buffer (pH 7.4) containing 0.1% (w/w) BSA and 0.02% (v/v) tween 20, and incubated with the AHC sensor respectively. 40 nM Trop2 antibody was incubated at 30° C. for 3 min with the AHC sensor loaded with the human Trop2 protein or monkey Trop2 protein respectively. The reaction mixture was incubated at 30° C. for another 5 min in a PBS buffer (pH 7.4) containing 0.1% (v/w) BSA and 0.02% (v/v) Tween 20. The association and dissociation signals between the Trop2 antibody and the human Trop2 protein or monkey Trop2 protein were recorded by Octet Red 96 in real time. The affinity and the association and dissociation constants were determined by Octet using software.

[2] = biological target: T3, human TROP2 protein (Sino Biological, …); assay: BLI, Octet RED96, AHC sensor
Experimental: as §1

[3] = biological target: T2, monkey Trop2 protein (Sino Biological, …); assay: BLI, Octet RED96; ratio against KD for human Trop2 protein
Experimental: as §1

Row | Binder | EC50 (human Trop2 on cells) [nM] | Maximum (MFI) (human Trop2 on cells) | Top % (human Trop2 on cells) [%] | Kd [1] [nM] | Response [1] | koff [1] [s⁻¹] | kon [1] [M⁻¹ s⁻¹] | Kd [2] [nM] | Response [2] | koff [2] [s⁻¹] | kon [2] [M⁻¹ s⁻¹] | fold lower KD than the reference antibody Tab (hRS7) [2] [fold] | KD (monkey)/KD (human) [3]
1 | PR001138 (antibody, human IgG1, kappa, V domains shown, fully human IgG1/kappa; also called antibody No. (7)) VH: QVQLQESGPRLVKPSETLSLTCAVSGYSISSGYYWGWIRQSPGMGLEWIAYIYHDGSTYCNPSLKSRVTMSVDTSKNQFSLKLRSVTAADTAVYYCARDGAAAPFDYWGQGTLVTVSS VL: DIQMTQSPSTLSASVGDRVTITCRASQSISNWLAWYQQKPGKAPKVLIYKASSLESGVPSRFSGSGSGTEFTLTINSLQPDDFATYYCQQYDSYSITFGQGTRLEIKR | 0.478 | 6730 | 104 | 0.409 | 0.329 | 3.98e-05 | 97400 | < 0.001 | 0.338 | < 1e-07 | 148000 | ~10 | 
2 | PR001171 (antibody, human IgG1, kappa, V domains shown, fully human IgG1/kappa; also called antibody No. (30)) VH: QVQLVESGGGVVQPGRSLRLSCAASGFTFSHYGMHWVRQAPGKGLEWVAVIWYDGIKKNYVESVKGRFTISRDNSKNTLNLQMNRLRAEDTAVYYCARDGGFGESNYYGLDVWGQGTTVTVSS VL: DIQLTQSPSFLSASVGDRVTITCRASQGISSYLGWYQQKPGKAPKLLIYIASTLQSGVPSRFSGSGSGTEFTLTISSLQPEDFATYYCQQLNSYPYTFGQGTKLEIKR | 0.997 | 6600 | 102 | 0.151 | 0.319 | 1.34e-05 | 88300 | 0.0251 | 0.326 | 3.74e-06 | 149000 |  | 6.02
3 | PR001151 (antibody, human IgG1, kappa, V domains shown, fully human IgG1/kappa; also called antibody No. (14)) VH: QVQLVESGGGVVQPGRSLRLSCAASGFTFSHYGMHWVRQAPGKGLEWVAVIWYDGIKKDYVESVKGRFTISRDNSKNTLYLQMNRLRAEDTAVYYCARDGGFGELNYYGLDVWGQGTTVTVSS VL: DIQLTQSPSFLSASVGDRVTITCRASQGISSYLGWYQQKPGKAPKLLIYVASTLQSGVPSRFSGSGSGTEFTLTISSLQPEDFATYYCQQLNSYPYTFGQGTKLEIKR | 1.61 | 7510 | 116 | 2.38 | 0.351 | 0.00018 | 75800 | 1.12 | 0.407 | 0.000127 | 113000 |  | 2.12
4 | PR001154 (antibody, human IgG1, kappa, V domains shown, fully human IgG1/kappa; also called antibody No. (17)) VH: QVQLVESGGGVVQPGRSLRLSCEASGFTFSHYGMHWVRQAPGKGLEWVAVIWYDGIKKYYIESVKGRFIISRDNSKNTLYLQMNRLRAEDTAVYYCARDGGFGELNYYGLDVWGQGTTVTVSS VL: DIQLTQSPSFLSASVGDRVTITCRASQGISSYLGWYQQKPGKAPKLLIYVASTLQSGVPSRFSGSGSGTEFTLTISSLQPEDFATYYCQQLNSYPYTFGQGTKLEIKR | 2.11 | 7470 | 115 | 1.91 | 0.379 | 0.000139 | 72700 | 0.855 | 0.41 | 9.23e-05 | 108000 |  | 2.24
5 | PR001150 (antibody, human IgG1, kappa, V domains shown, fully human IgG1/kappa; also called antibody No. (13)) VH: QVQLVESGGGVVQPEKSLRLSCAASGFTFSHYGMHWVRQVPGKGLEWVAVIWYDGIKRYYVESVKGRFTISRDNSKNTLYLQMNRLRAEDTAVYYCARDGGFGESNYYGLDVWGQGTTVTVSS VL: DIQLTQSPSFLSASVGDRVTITCRASQGINSYLGWYQRKPGKAPKLLIYIASTLQSGVPSRFSGSGSGTEFTLTISSLQPEDFATYYCQQLNSYPYTFGQGTKLEIKR | 0.589 | 6570 | 101 | 0.319 | 0.344 | 3.41e-05 | 107000 | 0.0326 | 0.382 | 5.25e-06 | 161000 | ~10 | 9.76
6 | PR001159 (antibody, human IgG1, kappa, V domains shown, fully human IgG1/kappa; also called antibody No. (21)) VH: QVQLVESGGGVVQPGRSLRLSCEASGFTFSHYGMHWVRQAPGKGLEWVAVIWYDGIKTNYVESVKGRFTISRDNSKNTLNLQMNRLRAEDTAVYYCARDGGFGESNYYGLDVWGQGTTVTVSS VL: DIQLTQSPSFLSASVGDRVTITCRASQGISSYLGWYQQKPGKAPKLLIYIASTLQSGVPSRFSGSGSGTEFTLTISSLQPEDFATYYCQQLNSYPYTFGQGTKLEIKR | 0.977 | 6790 | 105 | 0.307 | 0.372 | 3.39e-05 | 111000 | < 0.001 | 0.38 | < 1e-07 | 176000 | ~10 | 

Continued by falling EC50 (human Trop2 on cells), values first:

Row | EC50 (human Trop2 on cells) [nM] | Maximum (MFI) (human Trop2 on cells) | Top % (human Trop2 on cells) [%] | Kd [1] [nM] | Response [1] | koff [1] [s⁻¹] | kon [1] [M⁻¹ s⁻¹] | Kd [2] [nM] | Response [2] | koff [2] [s⁻¹] | kon [2] [M⁻¹ s⁻¹] | fold lower KD than the reference antibody Tab (hRS7) [2] [fold] | KD (monkey)/KD (human) [3] | Binder
7 | 1.93 | 7180 | 111 | 1.02 | 0.343 | 0.000105 | 103000 | 0.135 | 0.348 | 2.08e-05 | 154000 |  | 7.57 | PR001152 (antibody, human IgG1, kappa, V domains shown, fully human IgG1/kappa; also called antibody No. (15)) VH: QVQLVESGGAVVQPGRSLRLSCAASGFTFSHYGMHWVRQAPGKGLEWVAVIWYDGIKSYYVESVKGRFTISRDNSKNTLYLQMDRLRAEDTAVYYCARDGGFGESNYYGLDVWGQGTTVTVSS VL: DIQLTQSPSFLSASVGDRVTITCRASQGINSYLGWYQRKPGKAPKLLIYIASTLQSGVPSRFSGSGSGTEFTLTISSLQPEDFATYYCQQLNSYPYTFGQGTKLEIKR
8 | 0.441 | 6920 | 107 | 0.164 | 0.418 | 1.43e-05 | 86900 | < 0.001 | 0.417 | < 1e-07 | 121000 | ~10 |  | PR001132 (antibody, human IgG1, kappa, V domains shown, fully human IgG1/kappa; also called antibody No. (4)) VH: QVELVESGGGVVQPGRSLRLSCGASGFTFSSYNMYWVRQAPGKGLEWVAGIWDDGNNKYYANSVKGRFTISRDNSKNTLYLQMNSLRTEDTALYYCAKDGWGSYGEYFQHWGQGTLVTVSS VL: DIQMTQSPSSLSASVGERVTITCRASQNINSYLSWYQQKPGKAPKLLIYAASSLQNGVPSRFSGSGSGTDFTLTISSLQPEDFATYYCQQSFSTPPITFGQGTRLEIKR
9 | 0.352 | 6960 | 107 | < 0.001 | 0.387 | < 1e-07 | 307000 | < 0.001 | 0.368 | < 1e-07 | 476000 |  |  | PR001170 (antibody, human IgG1, kappa, V domains shown, fully human IgG1/kappa; also called antibody No. (29)) VH: QVQLQESGPGLVKPSETLSLTCAVSGYSINSGYFWAWIRQPPGMGLEWIGSIYHSGRTHYNPSLKSRVIISLDTSKNQFSLKLRSVTAADSAVYYCAREGYASGSYYWGQGTLVTVSS VL: EIVMTQSPATLSVSPGERATLSCRSSQSVNSYLAWFQQKPGQAPRLLIYDSSTRATGIPARFSGSGSGTEFTLTISSLQSEDFAFYFCQQYENWPLTFGGGTKVEIKR
